Experimental data from the DeepSol protein solubility set.

Assay: soluble on expression in E. coli; label from the status in PepcDB or PDB records

Sequence | soluble on expression in E. coli
MLQPPKIVAELSANHNQDLNLAKESLHAIKESGADFVKLQTYTPSCMTLNSKEDPFIIQGTLWDKENLYELYQKASTPLEWHAELFELARKLDLGIFSSPFSSQALELLESLNCPMYKIASFEIVDLDLIEKAARTQKPIILSSGIATHTELQDAISLCRRVNNFDITLLKCVSAYPSKIEDANLLSMVKLGEIFGVKFGLSDHTIGSLCPILATTLGASMIEKHFILNKSLQTPDSAFSMDFNGFKSMVEAIKQSVLALGEEEPRINPKTLEKRRFFARSLFVIKDIQKGEALTENNIKALRPNLGLHPKFYKEILGQKASKFLKANTPLSADDIERSLLEHHHHHH | not soluble
MGMIQLQNPSHPTGLLCKANQMRLAGTLCDVVIMVDSQEFHAHRTVLACTSKMFEILFHRNSQHYTLDFLSPKTFQQILEYAYTATLQAKAEDLDDLLYAAEILEIEYLEEQCLKMLETIQ | soluble
QTLARVDLAYDDYDGIFDCEYAYKAWRDDCFRTAERGRGPVLHEDMTIASIGKDGKPIYTKEQYSIGSRTSRIYWRIYNKALEQKLANTGLVWYRSEVELKKWNVDVLLNPAGAYAALNDFAASISTAKKFNTKPVPTKRAALDLLASAHWMRRQYGKILNSLIEFHEGDIETVVGSLVRDGTKFTFPDTYG | not soluble
MGSDKIHHHHHHVTRVAVVGDSLSAYAVAAVLTKLGYNCDLLCYPTKSNFYGPSLVLNDVSETLLSELFPDVNLGVDSQRLTHRWVCWGTQPVQIEQPALAIRSNSLLELLRNSKVMQHTRMIDASQLTAQQISQKYAWTVYTKHKQRGMPTLGEPCLQNAARSLLPRSRSVPQGSGTPTAGVAIALSESSQSLIGGQRVIVTAEVQDTPKSAYTCYMESLAEGWLFYAPVNGSGAMVQACLPITPANPRRALLECLYKSTTISTFVNDLQKVNCFFSAPYLEWPLCGLGWLMVGEPAIKIDPVSGEGTPFALRSAILAGAVIDAILSDRIPDISALNHYQTRLTHSFISHLRGCIQFYREVFSTNLAWQAEINQMIDIAETLSTQLEQQAVNVLNYRLIDFELHIG | not soluble
MHHHHHHSSGVDLGTENLYFQSMAAGGDHGSPDSYRSPLASRYASPEMCFVFSDRYKFRTWRQLWLWLAEAEQTLGLPITDEQIREMKSNLENIDFKMAAEEEKRLRHDVMAHVHTFGHCCPKAAGIIHLGATSCYVGDNTDLIILRNALDLLLPKLARVISRLADFAKERASLPTLGFTHFQPAQLTTVGKRCCLWIQDLCMDLQNLKRVRDDLRFRGVKGTTGTQASFLQLFEGDDHKVEQLDKMVTEKAGFKRAFIITGQTYTRKVDIEVLSVLASLGASVHKICTDIRLLANLKEMEEPFEKQQIGSSAMPYKRNPMRSERCCSLARHLMTLVMDPLQTASVQWFERTLDDSANRRICLAEAFLTADTILNTLQNISEGLVVYPKVIERRIRQELPFMATENIIMAMVKAGGSRQDCHEKIRVLSQQAASVVKQEGGDNDLIERIQVDAYFSPIHSQLDHLLDPSSFTGRASQQVQRFLEEEVYPLLKPYESVMKVKAE | soluble
MGACWSDNPKKVLEMLSPMNIIAITRSIPENTPNSWFIYWLTKVEEGEVRENIYAISPTKLEILPDLVKKALKLGYDGVYIDGIEALVIENGFKSVAKFLLHIKDIVLAENKFIILTLDPRALKEEEIKIIEKEFKKLELSLEHHHHHH | not soluble
MSKGGWYLWHYLTLLKGKAYCDIYCKRITFNVKFRYVYRHFHWYSSSNNKFKQLEHHHHHH | not soluble
MKVLVVGNGGREHAIAWKVAQSPLVKELYVAKGNAGIWEIAKRVDISPTDVEKLAEFAKNEGVDFTIVGPEAPLVEGIVDEFEKRGLKIFGPNKEAAKLEGSKAFAKTFMKKYGIPTARYEVFTDFEKAKEYVEKVGAPIVVKADGLAAGKGAVVCETVEKAIETLDRFLNKKIFGKSSERVVIEEFLEGEEASYIVMINGDRYVPLPTSQDHKRLLDEDKGPNTGGMGAYSPTPVINEEVEKRIREEIVERVIKGLKEEGIYYRGFLYAGLMITKEGPKVLEFNVRLGDPEAQPILMRVKNDFLETLLNFYEGKDVHIKEDERYALDVVLASRGYPEKPETGKIIHGLDYLKSMEDVVVFHAGTKKEGNFTVTSGGRVLNVCAYGKTLKEAKERAYEAIRYVCFEGMHYRKDIGDKAFKYLSE | soluble
MSLRVLFCSSEIYPYAKTGGLADFSFCLIKYLKKYGVKVKGVMPYYKTLKAENLRKTDKGVTLNLNGKDYTFEVYESEDCYFLRNDELFGRDYIYGPPGWGYEDNDIRFGGFSRAVSELISTGQLEADVVHANDWQTALIPLFLKEVFKTPVKTVFTIHNLAYQGLFPKETVERVGIPPYLFHMEAVEFWGLVNFMKGGIVFSDLITTVSPTYAKEIQTQEYGYGLEGVLKKYSYKLRGILNGIDYEVWNPEKDKYIYQNYSLRNYSKKFKNKEFLSKELGIEAEKPLISFINRFTHQKGVELILNCAEEMSKLNANFVFLGTGEYENAFLDVSKIYKNFKVFAEFNEGFARKLYASSDFILMPSYFEPCGLTQMIGMRYGCVPIVRKTGGLRDTVKDISEGGYGITFEEPSKETFLCSLKRAIELYENAKKFRNSVKIVMSLDFSCDRMTKEYIECYEEVQSHQEGHHHHHH | soluble
MADYYGLFTSDTRSVSDGESDGERRLRRSRRKRGGGRFRPYSPDYSDDEKTKPTKKNQKRPDKQDRFGMAPPNSTQFLLEDREARADAEFENEQKFEAAERRRVRTMSGSYEHMRPAYWCTIEPATTTADFGSDDNNDLDSTSGESEADREMEREFETDYLEVKRERIQSMTRSQLAAELLERDQDTQVLTRELGSKETENRHLRSLLSAHGISPDEPVTSTTAIVVGQSKSPVVAN | not soluble
MAGDPMVIIHMIPKKIHYCWFGKGKHSKEMKKCIKSWKKYCPDYEIIEWNESNFDISAHPFVKAAYEAKAWAFVSDYARLKIIYDYGGVYLDTDVELIRNIDFLLQNDAYLGVEAQDWLCNTGLGFGAKKHNSIIAEMLQIYNEIEFDNSKKSTIACPYLNTAVVEKIGYKKQDRIQQLDKITIYPPKYFDPFPSGGSVSILICDETVSIHHYSASWGSWKNKLKRRIARFIGPKLTFKLKKLKIFLITRKLEHHHHHH | soluble
MLEALKTANKTVGMKQSLKAVESLKAKQVFIAKDADEHVVARIKELCIKNNIPIVYVDTMKQLGKACNIDVGASVACLL | not soluble
MNGAAQADLWRLVVLNTYGGVYMDIDATLVWPLDKLLGDSQELYIRIKNNTEITNYFIATAPNNPDLQATIEQVVYNVNHYEPSMGVYHSTGPTVLNNILSAKAVIHTQDRKYVCIQGTFTNEHFQYIDKPRGKWLEHHHHHH | not soluble
DQGIVIYNAQHENLVKSWVDGFTKDTGIKVTLRNGGDSELGNQLVQEGSASPADVFLTENSPAMVLVDNAKLFAPLDAATLAQVEPQYRPSHGRWIGIAARSTVFVYNPAKLSDAQLPKSLLDLAKPEWKGRWAASPSGADFQAIVSALLELKGEKATLAWLKAMKTNFTAYKGNSTVMKAVNAGQVDSGVIYHYYPFVDGAKTGENSNNIKLYYFKHQDPGAFVSISGGGVLASSKHQQQAQAFIKWITGKQGQEILRTNNAFEYAVGVGAASNPKLVPLKDLDAPKVDAAQLNSKKVVELMTEAGLL | soluble
MEFDYVICEECGKEFMDSYLMDHFDLPTCDDCRDADDKHKLITKTEAKQEYLLKDCDLEKREPPLKFIVKKNPHHSQWGDMKLYLKLQIVKRSLEVWGSQEALEEAKEVRQ | soluble
MIGYEFFVSEKLENCKYKYIKAINDYIKQEKSHIIGIDLGKYHYLTASNIDRSFVFVDKHNTLFHLFRKYERRIANKQYDNSEAYSKLKTGLKSHINQVVNEMLEQTSNRFQTVFALDDHGSSHLSFPSLVFDLTYFAIKQRKNESDEILIVDESFTSIECPICHDRNQYNRTNKNKFKCTKCGFIHQNNDIVAASNIAKKGQLLNSLEHHHHHH | not soluble
MSKNMQNTSYRKLDVDSFDPEQYDENDETVDTPGLGPDERAVQGFLSSNRLEDALHAALLSPPLKTKDQNVKDRATQLVTKVLQSFKNAEIEATVQKLSIEESDILMKYVYKSMEIGADAAVCQSLLAWHAQLVAKFGHGAIMRVFSGRQRL | soluble
